From patent publication US20070224174A1 come the findings set out here.

In this assay the target is murine Axl receptor tyrosine kinase on precursor natural killer (pNK) cells (mouse) (UniProt Q00993). The assay is described as follows: cell-based or functional assay.
UniProt Q00993, sequence (Q00993 19-888): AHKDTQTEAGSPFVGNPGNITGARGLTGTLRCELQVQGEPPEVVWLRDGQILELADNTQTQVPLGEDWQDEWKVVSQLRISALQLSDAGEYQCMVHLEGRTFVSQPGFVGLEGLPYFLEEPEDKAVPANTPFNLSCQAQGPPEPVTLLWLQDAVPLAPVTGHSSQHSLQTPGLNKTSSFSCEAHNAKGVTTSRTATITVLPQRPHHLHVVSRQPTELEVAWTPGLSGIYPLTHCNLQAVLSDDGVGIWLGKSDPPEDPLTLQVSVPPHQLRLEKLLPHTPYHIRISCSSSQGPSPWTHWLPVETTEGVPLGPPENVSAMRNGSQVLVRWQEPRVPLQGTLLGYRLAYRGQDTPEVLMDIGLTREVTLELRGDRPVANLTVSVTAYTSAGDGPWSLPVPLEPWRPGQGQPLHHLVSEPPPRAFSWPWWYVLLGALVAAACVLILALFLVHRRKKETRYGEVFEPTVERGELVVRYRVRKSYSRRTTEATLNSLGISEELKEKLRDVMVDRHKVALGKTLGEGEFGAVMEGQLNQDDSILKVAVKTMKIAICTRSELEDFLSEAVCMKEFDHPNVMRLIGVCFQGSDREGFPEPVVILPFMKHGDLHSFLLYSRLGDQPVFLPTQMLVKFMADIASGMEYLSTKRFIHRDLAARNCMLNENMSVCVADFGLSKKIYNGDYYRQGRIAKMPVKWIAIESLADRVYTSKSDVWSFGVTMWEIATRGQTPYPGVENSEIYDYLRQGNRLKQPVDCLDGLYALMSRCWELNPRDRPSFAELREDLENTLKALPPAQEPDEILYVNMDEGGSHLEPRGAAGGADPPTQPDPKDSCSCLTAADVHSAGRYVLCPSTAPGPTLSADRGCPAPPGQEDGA

Substance “murine Gas6 protein secreted from the murine Gas6 transfectant (NIH3T3 transfected with pcDNA3.1-Gas6) (from UniProt Q61592 28-674) (ligand)” came in with a degree of differentiation of pNK cells into mNK cells (FACS), co-culture with murine Gas6 transfectant against control groups of 47%.
